Assay results taken from paper doi:10.1101/2022.12.10.519866 (bioRxiv, 2022).

Legend:
Assay in all cases: cryo-EM structure
[1] = molecular target: 3×FLAG-tagged full-length mouse BIRC6 (mouse) (UniProt O88738)
[2] = molecular target: 3×FLAG-tagged full-length mouse BIRC6 (mouse, UniProt O88738 1-4882)
cryo-EM structure = molecular target: the molecule itself

Chain of 3×FLAG-tagged full-length mouse BIRC6 (O88738 whole entry): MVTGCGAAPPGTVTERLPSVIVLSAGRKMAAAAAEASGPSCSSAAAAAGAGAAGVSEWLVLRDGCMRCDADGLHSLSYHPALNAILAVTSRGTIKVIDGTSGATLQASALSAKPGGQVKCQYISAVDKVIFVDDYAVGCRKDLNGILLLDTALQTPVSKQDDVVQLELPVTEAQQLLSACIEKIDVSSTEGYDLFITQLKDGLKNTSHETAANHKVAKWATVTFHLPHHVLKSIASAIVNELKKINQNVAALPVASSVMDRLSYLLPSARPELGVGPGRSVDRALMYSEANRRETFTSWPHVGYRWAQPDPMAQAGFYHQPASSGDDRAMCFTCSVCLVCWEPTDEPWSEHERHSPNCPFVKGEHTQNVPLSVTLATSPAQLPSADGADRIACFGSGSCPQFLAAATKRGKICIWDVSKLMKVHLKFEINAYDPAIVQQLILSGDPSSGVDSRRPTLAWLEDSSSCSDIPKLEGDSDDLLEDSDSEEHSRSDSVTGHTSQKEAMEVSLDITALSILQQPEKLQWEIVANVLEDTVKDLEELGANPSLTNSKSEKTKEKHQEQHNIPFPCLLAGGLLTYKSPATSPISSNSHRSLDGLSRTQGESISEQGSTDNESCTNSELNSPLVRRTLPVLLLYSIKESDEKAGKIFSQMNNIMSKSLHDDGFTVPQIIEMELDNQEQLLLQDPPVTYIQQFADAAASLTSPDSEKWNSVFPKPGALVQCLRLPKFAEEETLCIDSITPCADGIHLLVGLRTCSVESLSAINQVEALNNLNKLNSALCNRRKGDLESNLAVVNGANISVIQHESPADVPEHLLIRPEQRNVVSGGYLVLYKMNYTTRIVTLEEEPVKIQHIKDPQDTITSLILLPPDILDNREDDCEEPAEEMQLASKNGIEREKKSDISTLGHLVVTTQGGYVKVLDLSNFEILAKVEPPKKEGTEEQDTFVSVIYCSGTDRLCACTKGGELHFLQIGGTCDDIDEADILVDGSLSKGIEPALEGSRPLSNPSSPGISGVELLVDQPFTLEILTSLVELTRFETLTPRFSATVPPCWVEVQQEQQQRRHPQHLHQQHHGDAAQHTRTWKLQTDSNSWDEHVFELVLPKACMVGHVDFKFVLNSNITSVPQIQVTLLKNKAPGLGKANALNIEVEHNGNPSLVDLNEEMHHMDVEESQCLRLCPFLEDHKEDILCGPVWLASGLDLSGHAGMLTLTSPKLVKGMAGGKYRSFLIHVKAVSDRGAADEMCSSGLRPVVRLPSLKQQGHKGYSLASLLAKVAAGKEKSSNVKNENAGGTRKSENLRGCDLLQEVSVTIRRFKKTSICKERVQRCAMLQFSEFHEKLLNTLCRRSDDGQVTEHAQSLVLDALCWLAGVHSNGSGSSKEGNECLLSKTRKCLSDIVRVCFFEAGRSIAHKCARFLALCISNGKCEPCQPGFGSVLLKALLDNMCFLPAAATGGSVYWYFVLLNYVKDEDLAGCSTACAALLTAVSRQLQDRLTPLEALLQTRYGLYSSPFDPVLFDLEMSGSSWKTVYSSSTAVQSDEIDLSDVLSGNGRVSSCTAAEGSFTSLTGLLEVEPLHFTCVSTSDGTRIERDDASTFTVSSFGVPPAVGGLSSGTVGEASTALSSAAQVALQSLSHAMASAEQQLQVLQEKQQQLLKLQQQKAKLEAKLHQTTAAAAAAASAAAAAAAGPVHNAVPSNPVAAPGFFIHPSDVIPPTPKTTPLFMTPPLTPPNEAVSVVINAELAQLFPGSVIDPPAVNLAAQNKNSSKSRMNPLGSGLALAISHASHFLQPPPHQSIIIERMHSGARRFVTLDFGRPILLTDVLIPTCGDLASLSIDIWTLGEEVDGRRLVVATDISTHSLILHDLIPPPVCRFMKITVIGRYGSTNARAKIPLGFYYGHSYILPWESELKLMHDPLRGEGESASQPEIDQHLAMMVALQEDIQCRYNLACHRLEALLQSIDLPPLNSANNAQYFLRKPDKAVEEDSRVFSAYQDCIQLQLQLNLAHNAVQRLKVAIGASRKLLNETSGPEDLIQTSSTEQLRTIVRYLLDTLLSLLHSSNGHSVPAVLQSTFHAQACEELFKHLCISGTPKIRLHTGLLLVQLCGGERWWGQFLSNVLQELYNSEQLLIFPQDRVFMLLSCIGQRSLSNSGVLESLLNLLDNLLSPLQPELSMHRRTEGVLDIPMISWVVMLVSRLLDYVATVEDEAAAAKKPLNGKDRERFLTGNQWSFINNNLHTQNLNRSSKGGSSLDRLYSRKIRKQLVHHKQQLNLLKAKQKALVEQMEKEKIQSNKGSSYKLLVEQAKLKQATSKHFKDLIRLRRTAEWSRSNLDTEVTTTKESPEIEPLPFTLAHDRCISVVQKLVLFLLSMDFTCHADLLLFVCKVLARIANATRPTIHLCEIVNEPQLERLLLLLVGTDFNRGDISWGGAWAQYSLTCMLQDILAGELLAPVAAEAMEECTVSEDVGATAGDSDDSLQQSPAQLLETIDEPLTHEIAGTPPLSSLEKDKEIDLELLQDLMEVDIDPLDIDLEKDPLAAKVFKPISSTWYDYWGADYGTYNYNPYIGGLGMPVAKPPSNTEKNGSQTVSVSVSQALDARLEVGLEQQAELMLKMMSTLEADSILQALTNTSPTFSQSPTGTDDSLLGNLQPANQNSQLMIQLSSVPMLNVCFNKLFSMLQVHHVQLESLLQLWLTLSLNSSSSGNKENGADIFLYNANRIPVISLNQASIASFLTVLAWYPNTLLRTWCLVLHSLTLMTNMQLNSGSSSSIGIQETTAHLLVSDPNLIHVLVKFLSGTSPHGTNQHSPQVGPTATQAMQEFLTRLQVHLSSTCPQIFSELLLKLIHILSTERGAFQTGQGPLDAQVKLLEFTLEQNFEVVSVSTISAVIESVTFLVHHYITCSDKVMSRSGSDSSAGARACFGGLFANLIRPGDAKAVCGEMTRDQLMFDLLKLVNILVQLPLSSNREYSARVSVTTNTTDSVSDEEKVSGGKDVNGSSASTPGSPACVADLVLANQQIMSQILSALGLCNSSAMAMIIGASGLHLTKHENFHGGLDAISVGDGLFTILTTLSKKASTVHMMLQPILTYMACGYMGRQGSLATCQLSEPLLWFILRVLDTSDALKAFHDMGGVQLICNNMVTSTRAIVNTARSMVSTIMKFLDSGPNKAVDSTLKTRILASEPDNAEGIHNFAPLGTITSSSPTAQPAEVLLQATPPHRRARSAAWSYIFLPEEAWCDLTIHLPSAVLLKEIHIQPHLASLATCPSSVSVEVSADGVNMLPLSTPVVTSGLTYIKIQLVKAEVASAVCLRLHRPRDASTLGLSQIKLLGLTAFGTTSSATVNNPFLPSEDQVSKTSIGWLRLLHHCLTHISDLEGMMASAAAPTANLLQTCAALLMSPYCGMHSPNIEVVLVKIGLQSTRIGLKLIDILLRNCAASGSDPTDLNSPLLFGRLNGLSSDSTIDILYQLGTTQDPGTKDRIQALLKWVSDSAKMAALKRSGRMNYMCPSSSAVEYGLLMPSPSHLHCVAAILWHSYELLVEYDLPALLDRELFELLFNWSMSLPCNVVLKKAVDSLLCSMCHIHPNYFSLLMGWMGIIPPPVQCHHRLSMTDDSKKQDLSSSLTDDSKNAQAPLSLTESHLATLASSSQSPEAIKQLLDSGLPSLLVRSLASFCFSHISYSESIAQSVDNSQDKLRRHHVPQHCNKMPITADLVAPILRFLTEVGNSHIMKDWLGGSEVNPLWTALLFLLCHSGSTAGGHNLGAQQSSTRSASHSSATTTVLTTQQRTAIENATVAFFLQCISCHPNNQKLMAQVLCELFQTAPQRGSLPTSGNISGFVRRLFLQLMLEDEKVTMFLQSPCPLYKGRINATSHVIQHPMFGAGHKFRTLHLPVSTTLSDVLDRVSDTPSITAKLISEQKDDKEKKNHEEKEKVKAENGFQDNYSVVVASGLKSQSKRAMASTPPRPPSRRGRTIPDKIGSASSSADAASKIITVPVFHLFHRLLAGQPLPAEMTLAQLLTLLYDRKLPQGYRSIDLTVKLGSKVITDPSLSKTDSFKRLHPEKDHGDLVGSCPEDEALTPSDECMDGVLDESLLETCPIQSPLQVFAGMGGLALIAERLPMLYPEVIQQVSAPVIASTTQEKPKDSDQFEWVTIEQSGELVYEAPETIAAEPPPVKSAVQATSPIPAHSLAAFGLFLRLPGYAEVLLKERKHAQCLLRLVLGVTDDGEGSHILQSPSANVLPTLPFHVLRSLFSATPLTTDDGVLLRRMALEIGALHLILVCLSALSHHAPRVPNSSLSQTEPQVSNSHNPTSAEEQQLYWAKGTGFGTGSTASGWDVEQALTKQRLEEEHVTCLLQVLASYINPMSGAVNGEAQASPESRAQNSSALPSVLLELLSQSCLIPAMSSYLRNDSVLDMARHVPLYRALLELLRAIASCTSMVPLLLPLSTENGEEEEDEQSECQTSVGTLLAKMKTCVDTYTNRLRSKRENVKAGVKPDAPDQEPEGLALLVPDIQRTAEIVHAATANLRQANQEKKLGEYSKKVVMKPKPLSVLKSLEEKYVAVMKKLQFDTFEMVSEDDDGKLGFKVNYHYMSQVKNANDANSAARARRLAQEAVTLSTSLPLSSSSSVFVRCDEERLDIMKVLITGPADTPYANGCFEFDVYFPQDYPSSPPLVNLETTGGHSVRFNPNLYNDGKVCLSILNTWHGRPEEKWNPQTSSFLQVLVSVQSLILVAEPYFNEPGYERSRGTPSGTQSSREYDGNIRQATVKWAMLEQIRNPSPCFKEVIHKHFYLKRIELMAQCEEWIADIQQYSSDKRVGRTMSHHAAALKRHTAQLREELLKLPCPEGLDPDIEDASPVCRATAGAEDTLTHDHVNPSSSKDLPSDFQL

stoichiometry N [1]	binding result [2]	Molecule	stoichiometry N (cryo-EM structure)
2		3×FLAG-tagged full-length mouse BIRC6, O88738 1-4882	
	binds	Smac/DIABLO, endogenous, co-purified with FLAG-BIRC6 from HEK293F cells (natural protein) AVPIAQKSEPHSLSSEALMRRAVSLVTDSTSTFLSQTTYALIEAITEYTKAVYTLTSLYRQYTSLLGKMNSEEEDEVWQVIIGARAEMTSKHQEYLKLETTWMTAVGLSEMAAEAAYQTGADQASITARNHIQLVKLQVEEVHQLSRKAETKLAEAQIEELRQKTQEEGEERAESEQEAYLRED	2
